Changes are numbered by the printed parent chain. Numbers in names are those of the source.

The series addresses factor X (FX), P00742.

Chain of factor X (FX), P00742 (P00742 whole entry, looked up): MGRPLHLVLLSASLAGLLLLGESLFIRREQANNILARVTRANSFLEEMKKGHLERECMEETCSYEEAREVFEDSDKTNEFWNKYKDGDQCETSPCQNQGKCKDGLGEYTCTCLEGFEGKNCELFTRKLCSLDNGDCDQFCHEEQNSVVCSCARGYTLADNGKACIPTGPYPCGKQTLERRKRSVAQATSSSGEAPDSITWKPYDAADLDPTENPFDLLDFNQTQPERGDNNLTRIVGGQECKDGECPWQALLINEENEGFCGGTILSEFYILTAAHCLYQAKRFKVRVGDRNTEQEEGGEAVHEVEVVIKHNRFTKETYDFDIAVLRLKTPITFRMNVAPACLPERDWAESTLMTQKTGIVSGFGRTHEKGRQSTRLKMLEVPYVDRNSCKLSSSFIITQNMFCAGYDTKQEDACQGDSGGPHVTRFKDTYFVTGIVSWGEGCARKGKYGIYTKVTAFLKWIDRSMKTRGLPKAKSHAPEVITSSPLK

B1: FIXa-Y94F/K98T/Y177F (protein)
chain: YNSGKLEEFVQGNLERECMEEKCSFEEAREVFENTERTTEFWKQYVDGDQCESNPCLNGGSCKDDINSYECWCPFGFEGKNCELDVTCNIKNGRCEQFCKNSADNKVVCSCTEGYRLAENQKSCEPAVPFPCGRVSVSQTSKLTRAEAVFPDVDYVNSTEAETILDNITQSTQSFNDFTRVVGGEDAKPGQFPWQVVLNGKVDAFCGGSIVNEKWIVTAAHCVETGVKITVVAGEHNIEETEHTEQKRNVIRIIPHHNFNAAINTYNHDIALLELDEPLVLNSYVTPICIADKEYTNIFLKFGSGYVSGWGRVFHKGRSALVLQYLRVPLVDRATCLRSTKFTIFNNMFCAGFHEGGRDSCQGDSGGPHVTEVEGTSFLTGIISWGEECAMKGKYGIYTKVSRYVNWIKEKTKLT
B1: the aPTT in FIX-depleted plasma: pdFIXa equivalent activity given for 0.5 µg/mL of FIXa protein (µg/mL pdFIXa activity) stood at 1.

B2: FIXa-Y94F/K98T/Y177F/I213V/E219G (protein)
chain: B1 chain with I383V, E388G
For the protein B2, the aPTT in FIX-depleted plasma: pdFIXa equivalent activity given for 0.5 µg/mL of FIXa protein (µg/mL pdFIXa activity) was 14.4.

The values are drawn from patent US20080214462.
